“And” between values parts separate entries of the source, which are not always exact repeats. Equal values may be shown once. Blank lines part the entries; values can stand above or below the molecule they belong to.
How the values were obtained:
[1] = target: N-terminally truncated Sis10b (ΔN12) (Sulfolobus islandicus REY15A); experiment: cross-linking; 10 μg protein cross-linked with 0.5 mM DSP, with or without 5 μg of a 25-bp dsRNA, 30 min at 25 or 55°C, 20 mM potassium phosphate pH 7.6, 50 mM KCl; 15% SDS-PAGE, Coomassie stain
[2] = target: Sis10b M20E/L24E/L27E/F60E (Sulfolobus islandicus REY15A); experiment: as above
Sis10b wild-type = target: T1, Sis10b wild-type (Sulfolobus islandicus REY15A, UniProt F0NHH1 1-97); experiment: EMSA; 55°C; EMSA: 20 mM HEPES-NaOH pH 7.0, 1 mM DTT, 100 ug/ml BSA, 6% glycerol, 30 min at 25, 37 or 55°C; gel in 0.5x TBE at the same temperature; conditions: protein: recombinant, tags: none (NdeI/XhoI pET30a, stop codon in reverse primer), chain copies: 2
T1 sequence: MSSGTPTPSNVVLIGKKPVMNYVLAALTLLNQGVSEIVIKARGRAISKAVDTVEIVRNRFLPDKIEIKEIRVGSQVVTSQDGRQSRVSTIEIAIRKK

stoichiometry N [1]: 2 and 4
Molecule: N-terminally truncated Sis10b (ΔN12) (domain or fragment)

stoichiometry N [2]: 5 and 3
Molecule: Sis10b M20E/L24E/L27E/F60E

B1: 44-bp dsRNA (dsRNA)
RNA 1: UGACUUCCGCGCGUGAGCUCGAUUCCACAUACCCUAAAUCGCUC
RNA 2: GAGCGAUUUAGGGUAUGUGGAAUCGAGCUCACGCGCGGAAGUCA
Kd (Sis10b wild-type; label: 5' 32P on top strand, blunt): ~29.4 nM

B2: 44-nt ssRNA (t) (ssRNA)
RNA: UGACUUCCGCGCGUGAGCUCGAUUCCACAUACCCUAAAUCGCUC
Kd (Sis10b wild-type; label: 5' 32P, single strand): ~5.3 nM

Reference: publication PMC7498313, “The Sac10b homolog from Sulfolobus islandicus is an RNA chaperone”
